Measurements taken from patent US20210355194A1 (TWIST BIOSCIENCE, published 2021).

What follows are binders tested against CV S-protein construct 6 trimer TP31001F (SARS-CoV-2, UniProt P0DTC2 14-1208) (assay: SPR).

Binder | Kd
variant 6-66 (Fc fusion) VHH: EVQLVESGGGLVQPGGSLRLSCAASGLTFSLFAMGWFRQAPGKERELVAAISSGGSTDYADSVKGRFTISADNSKNTAYLQMNSLKPEDTAVYYCARGNTKYYYDSSGYSSAFDYWGQGTLVTVSS | 7.7 nM
variant 6-53 (Fc fusion) VHH: EVQLVESGGGLVQPGGSLRLSCAASGISINTNVMGWFRQAPGKEREFVAAISTGSVTIYADSVKGRFTISADNSKNTAYLQMNSLKPEDTAVYYCARVDDFGYFDLWGQGTLVTVSS | 24.2 nM
variant 6-58 (Fc fusion) VHH: EVQLVESGGGLVQPGGSLRLSCAASGRAVSTYAMGWFRQAPGKEREFVAAISGSENVTSYADSVKGRFTISADNSKNTAYLQMNSLKPEDTAVYYCLSVTGDTEDYGVFDTWGQGTLVTVSS | 1 nM
variant 6-52 (Fc fusion) VHH: EVQLVESGGGLVQPGGSLRLSCAASGDTYGSYWMGWFRQAPGKEREVVAAITSGGSTVYADSVKGRFTISADNSKNTAYLQMNSLKPEDTAVYYCARVDSRFDYWGQGTLVTVSS | 1.1 nM
variant 6-55 (Fc fusion, VHH-Fc) VHH: EVQLVESGGGLVQPGGSLRLSCAASGFTMSSSWMGWFRQAPGKEREFVARITSGGSTGYADSVKGRFTISADNSKNTAYLQMNSLKPEDTAVYYCASVDGYFDYWGQGTLVTVSS | 0.3 nM
variant 6-51 (Fc fusion) VHH: EVQLVESGGGLVQPGGSLRLSCAASGYTYSSYVMGWFRQAPGKEREFVAAISRFGSTYYADSVKGRFTISADNSKNTAYLQMNSLKPEDTAVYYCARDSGEHFWDSGYIDHWGQGTLVTVSS | 0.8 nM
variant 6-50 (Fc fusion) VHH: EVQLVESGGGLVQPGGSLRLSCAASGFSFDRWAMGWFRQAPGKEREWVASLATGGNTNYADSVKGRFTISADNSKNTAYLQMNSLKPEDTAVYYCARVTNYDAFDIWGQGTLVTVSS | 67.6 nM
variant 6-60 (Fc fusion, VHH-Fc) VHH: EVQLVESGGGLVQPGGSLRLSCAASGDTYGSYWMGWFRQAPGKEREFVATISQSGAATAYADSVKGRFTISADNSKNTAYLQMNSLKPEDTAVYYCAGLLRYSGTYYDAFDVWGQGTLVTVSS | 0.1 nM
variant 6-62 (Fc fusion) VHH: EVQLVESGGGLVQPGGSLRLSCAASGSTFSGNWMGWFRQAPGKEREFVAVISWTGGSTYYADSVKGRFTISADNSKNTAYLQMNSLKPEDTAVYYCATHNSLSGFDYWGQGTLVTVSS | 198 nM
variant 6-47 (Fc fusion) VHH: EVQLVESGGGLVQPGGSLRLSCAASGRTFSMHAMGWFRQAPGKERELVASITYGGNINYADSVKGRFTISADNSKNTAYLQMNSLKPEDTAVYYCAKEGYYDSTGYRTYFQQWGQGTLVTVSS | 5.6 nM
variant 6-49 (Fc fusion) VHH: EVQLVESGGGLVQPGGSLRLSCAASGSTVLINAMGWFRQAPGKEREFVAAISWSPGRTDYADSVKGRFTISADNSKNTAYLQMNSLKPEDTAVYYCARDCSGGSCYSGDYWGQGTLVTVSS | 2.2 nM
variant 6-54 (Fc fusion) VHH: EVQLVESGGGLVQPGGSLRLSCAASGFEFENHWMGWFRQAPGKEREYVAHITAGGLSNYADSVKGRFTISADNSKNTAYLQMNSLKPEDTAVYYCGRHWGIYDSSGFSSFDYWGQGTLVTVSS | 0.9 nM
variant 6-56 (Fc fusion) VHH: EVQLVESGGGLVQPGGSLRLSCAASGNIFRSNMGWFRQAPGKEREFVAGITWNGDTTYYADSVKGRFTISADNSKNTAYLQMNSLKPEDTAVYYCARALGVTYQFDYWGQGTLVTVSS | 14.9 nM
variant 6-57 (Fc fusion) VHH: EVQLVESGGGLVQPGGSLRLSCAASGLTFDDHSMGWFRQAPGKEREFVAAVPLSGNTYYADSVKGRFTISADNSKNTAYLQMNSLKPEDTAVYYCASFSGGPADFDYWGQGTLVTVSS | 0.7 nM
